Like-named read-outs stand apart in the source and are kept apart here.
Key:
[1] = biological target: hen egg lysozyme (hen) (UniProt P00698); assay: ELISA, no periplasmic extract; anti-His4 and anti-mouse HRP on HEL coated at 1.55 µg/ml
[2] = biological target: hen egg lysozyme (hen) (UniProt P00698); assay: ELISA, no periplasmic extract; anti-His4 and anti-mouse HRP on HEL coated at 12.5 µg/ml
[3] = biological target: hen egg lysozyme (hen) (UniProt P00698); assay: ELISA, no periplasmic extract; anti-His4 and anti-mouse HRP on HEL coated at 50 µg/ml
[4] = biological target: hen egg lysozyme (hen) (UniProt P00698); assay: ELISA, no periplasmic extract; anti-His4 and anti-mouse HRP on HEL coated at 100 µg/ml
[5] = biological target: hen egg lysozyme (hen) (UniProt P00698); assay: ELISA, no periplasmic extract; anti-His4 and anti-mouse HRP on coated HEL (100 µg/ml), 12 parallel readings
[6] = biological target: hen egg lysozyme (hen) (UniProt P00698); assay: as above; remark: listed apart in the source
[7] = biological target: recombinant human Erythropoietin (rhEPO) (human) (UniProt P01588); assay: ELISA, no periplasmic extract; anti-His-(4) and goat anti-mouse IgG-AP alone on coated rhEPO; negative control, no-antigen well 0.090
Sequence of UniProt P01588 (P01588 28-192 limits assumed): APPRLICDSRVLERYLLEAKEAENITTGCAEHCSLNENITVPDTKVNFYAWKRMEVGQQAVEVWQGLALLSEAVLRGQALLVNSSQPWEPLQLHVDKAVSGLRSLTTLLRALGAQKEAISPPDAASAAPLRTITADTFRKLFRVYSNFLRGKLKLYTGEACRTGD

[8] = biological target: hen egg lysozyme (hen) (UniProt P00698); assay: ELISA, no periplasmic extract; anti-His4 and anti-mouse HRP on HEL coated at 6.25 µg/ml
[9] = biological target: hen egg lysozyme (hen) (UniProt P00698); assay: ELISA, no periplasmic extract; anti-His4 and anti-mouse HRP on HEL coated at 25 µg/ml
[10] = biological target: hen egg lysozyme (hen) (UniProt P00698); assay: ELISA, no periplasmic extract; anti-His4 and anti-mouse HRP on HEL coated at 0.39 µg/ml
[11] = biological target: hen egg lysozyme (hen) (UniProt P00698); assay: ELISA, no periplasmic extract; anti-His4 and anti-mouse HRP on HEL coated at 3.125 µg/ml
[12] = biological target: hen egg lysozyme (hen) (UniProt P00698); assay: ELISA, no periplasmic extract; anti-His-(4) and goat anti-mouse IgG-HRP alone on coated HEL (20 µg/ml); negative control, no-antigen well 0.018
[13] = biological target: hen egg lysozyme (hen) (UniProt P00698); assay: ELISA, no periplasmic extract; anti-His4 and anti-mouse HRP on HEL coated at 200 µg/ml

Sequence of UniProt P00698 (P00698 19-147 limits assumed): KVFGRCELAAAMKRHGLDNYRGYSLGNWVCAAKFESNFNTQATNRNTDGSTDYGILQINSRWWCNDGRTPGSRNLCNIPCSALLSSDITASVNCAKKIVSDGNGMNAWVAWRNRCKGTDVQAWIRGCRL

## anti-His4 antibody (Qiagen)
[1]
  ELISA absorbance (no periplasmic extract): 0.013 A 492/620
[2]
  ELISA absorbance (no periplasmic extract): 0.038 A 492/620
[3]
  ELISA absorbance (no periplasmic extract): 0.165 A 492/620
[4]
  ELISA absorbance (no periplasmic extract): 0.36 A 492/620
[5]
  A 492/620 background (antigen alone): 0.176 A 492/620
[6]
  A 492/620 background (antigen alone): 0.133 A 492/620
[7]
  absorbance, no periplasmic extract (control): 0.095 A 405/620 nm
[8]
  ELISA absorbance (no periplasmic extract): 0.023 A 492/620
[9]
  ELISA absorbance (no periplasmic extract): 0.072 A 492/620
[10]
  ELISA absorbance (no periplasmic extract): 0.007 A 492/620
[11]
  ELISA absorbance (no periplasmic extract): 0.017 A 492/620
[12]
  absorbance, no periplasmic extract (control): 0.11 A 492/620 nm
[13]
  ELISA absorbance (no periplasmic extract): 0.449 A 492/620

— patent US20110251375A1
